In the supplement of paper PMC5998384:

How the values were obtained:
HeLa Kyoto [1] = experiment: solubility in G1/S (NP-40 vs SDS abundance) (log2 ratio); higher = more soluble; settings: cell cycle stage: G1/S
HeLa Kyoto [2] = experiment: thermal stability score vs G1/S (z-score of summed log2 fold changes over temperatures); higher = more thermally stable than in G1/S
HeLa Kyoto [3] = experiment: melting temperature (median over replicates), in situ; higher = more thermally stable
HeLa Kyoto [4] = experiment: solubility change mitosis vs G1/S (difference of NP-40 vs SDS log2 ratios) (log2 ratio difference); higher = more soluble in mitosis
[5] = cell cycle stage: early G1 (4.5 h after nocodazole release)
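For melting temperature (median over replicates), in situ in this document: HeLa Kyoto cells synchronized by double thymidine or nocodazole block, proteins quantified by TMT10plex mass spectrometry, three independent biological replicates.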
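For solubility change mitosis vs G1/S (difference of NP-40 vs SDS log2 ratios) in this document: synchronized HeLa Kyoto cells (double thymidine block for G1/S, nocodazole release for mitosis), protein amounts in NP-40 versus SDS lysates quantified by mass spectrometry, three biological replicates.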
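For solubility in G1/S (NP-40 vs SDS abundance) in this document: HeLa Kyoto cells arrested at G1/S by double thymidine block, proteins quantified by TMT10plex mass spectrometry in mild NP-40 versus SDS extracts, three biological replicates.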
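For thermal stability score vs G1/S (z-score of summed log2 fold changes over temperatures) in this document: synchronized HeLa Kyoto cells, proteins quantified by TMT10plex mass spectrometry, three biological replicates, mitosis taken 0.5 h after nocodazole release, G1/S directly after double thymidine block.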

DCK, sequence (chain, as listed by the source): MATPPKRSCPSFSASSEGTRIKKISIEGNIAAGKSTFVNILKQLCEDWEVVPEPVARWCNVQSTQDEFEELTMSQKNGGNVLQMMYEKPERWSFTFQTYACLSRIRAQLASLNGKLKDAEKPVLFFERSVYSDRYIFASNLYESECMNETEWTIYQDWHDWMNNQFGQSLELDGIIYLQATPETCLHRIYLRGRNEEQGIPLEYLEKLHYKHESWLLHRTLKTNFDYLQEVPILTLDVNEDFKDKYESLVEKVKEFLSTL

Row | Substance | solubility in G1/S (log2) (HeLa Kyoto [1]) | thermal stability score (HeLa Kyoto [2]; [5]) | thermal stability score (HeLa Kyoto [2]; cell cycle stage: mitosis) | melting temperature (HeLa Kyoto [3]; cell cycle stage: G1/S) [°C] | melting temperature (HeLa Kyoto [3]; cell cycle stage: mitosis) [°C] | solubility change mitosis (log2) (HeLa Kyoto [4])
1 | MGILEKISEIEKEIARTQKNKATEYHLGLLKAKLAKYRAQLLEPSKSASSKGEGFDVMKSGDARVALIGFPSVGKSTFLSLMTSTASEAASYEFTTLTCIPGVIEYKGANIQLLDLPGIIEGAAQGKGRGRQVIAVARTADVIIMMLDATKGEVQRSLLEKELESVGIRLNKHKPNIYFKPKKGGGISFNSTVTLTQCSEKLVQLILHEYKIFNAEVLFREDCSPDEFIDVIVGNRVYMPCLYVYNKIDQISMEEVDRLARKPNSVVISCGMKLNLDYLLEMLWEYLALTCIYTKKRGQRPDFTDAIILRKGASVEHVCHRIHRSLASQFKYALVWGTSTKYSPQRVGLTHTMEHEDVIQIVKK [DRG2] | 0.0131 | -0.377 | -0.907 | 51.9 | 51.6 | -0.113
2 | MAVTGWLESLRTAQKTALLQDGRRKVHYLFPDGKEMAEEYDEKTSELLVRKWRVKSALGAMGQWQLEVGDPAPLGAGNLGPELIKESNANPIFMRKDTKMSFQWRIRNLPYPKDVYSVSVDQKERCIIVRTTNKKYYKKFSIPDLDRHQLPLDDALLSFAHANCTLIISYQKPKEVVVAESELQKELKKVKTAHSNDGDCKTQ [DPCD] | 0.223 | 0.4 | 0.716 | 49.9 | 49 | -0.0049
3 | DCK | 0.17 | 2.05 | 2.37 | 53.9 | 53.1 | -0.103
4 | MYDNMSTMVYIKEDKLEKLTQDEIISKTKQVIQGLEALKNEHNSILQSLLETLKCLKKDDESNLVEEKSNMIRKSLEMLELGLSEAQVMMALSNHLNAVESEKQKLRAQVRRLCQENQWLRDELANTQQKLQKSEQSVAQLEEEKKHLEFMNQLKKYDDDISPSEDKDTDSTKEPLDDLFPNDEDDPGQGIQQQHSSAAAAAQQGGYEIPARLRTLHNLVIQYASQGRYEVAVPLCKQALEDLEKTSGHDHPDVATMLNILALVYRDQNKYKDAANLLNDALAIREKTLGKDHPAVAATLNNLAVLYGKRGKYKEAEPLCKRALEIREKVLGKDHPDVAKQLNNLALLCQNQGKYEEVEYYYQRALEIYQTKLGPDDPNVAKTKNNLASCYLKQGKFKQAETLYKEILTRAHEREFGSVDDENKPIWMHAEEREECKGKQKDGTSFGEYGGWYKACKVDSPTVTTTLKNLGALYRRQGKFEAAETLEEAAMRSRKQGLDNVHKQRVAEVLNDPENMEKRRSRESLNVDVVKYESGPDGGEEVSMSVEWNGGVSGRASFCGKRQQQQWPGRRHR [KLC1] | 0.299 | 0.136 | 0.172 | 51.6 | 51.4 | -0.175
5 | MAAKGAHGSYLKVESELERCRAEGHWDRMPELVRQLQTLSMPGGGGNRRGSPSAAFTFPDTDDFGKLLLAEALLEQCLKENHAKIKDSMPLLEKNEPKMSEAKNYLSSILNHGRLSPQYMCEAMLILGKLHYVEGSYRDAISMYARAGIDDMSMENKPLYQMRLLSEAFVIKGLSLERLPNSIASRFRLTEREEEVITCFERASWIAQVFLQELEKTTNNSTSRHLKGCHPLDYELTYFLEAALQSAYVKNLKKGNIVKGMRELREVLRTVETKATQNFKVMAAKHLAGVLLHSLSEECYWSPLSHPLPEFMGKEESSFATQALRKPHLYEGDNLYCPKDNIEEALLLLLISESMATRDVVLSRVPEQEEDRTVSLQNAAAIYDLLSITLGRRGQYVMLSECLERAMKFAFGEFHLWYQVALSMVACGKSAYAVSLLRECVKLRPSDPTVPLMAAKVCIGSLRWLEEAEHFAMMVISLGEEAGEFLPKGYLALGLTYSLQATDATLKSKQDELHRKALQTLERAQQLAPSDPQVILYVSLQLALVRQISSAMEQLQEALKVRKDDAHALHLLALLFSAQKHHQHALDVVNMAITEHPENFNLMFTKVKLEQVLKGPEEALVTCRQVLRLWQTLYSFSQLGGLEKDGSFGEGLTMKKQSGMHLTLPDAHDADSGSRRASSIAASRLEEAMSELTMPSSVLKQGPMQLWTTLEQIWLQAAELFMEQQHLKEAGFCIQEAAGLFPTSHSVLYMRGRLAEVKGNLEEAKQLYKEALTVNPDGVRIMHSLGLMLSRLGHKSLAQKVLRDAVERQSTCHEAWQGLGEVLQAQGQNEAAVDCFLTALELEASSPVLPFSIIPREL [TTC7A] | 0.161 | 0.0827 | -0.515 | 51.2 |  | -0.168
6 | MADGELNVDSLITRLLEVRGCRPGKIVQMTEAEVRGLCIKSREIFLSQPILLELEAPLKICGDIHGQYTDLLRLFEYGGFPPEANYLFLGDYVDRGKQSLETICLLLAYKIKYPENFFLLRGNHECASINRIYGFYDECKRRFNIKLWKTFTDCFNCLPIAAIVDEKIFCCHGGLSPDLQSMEQIRRIMRPTDVPDTGLLCDLLWSDPDKDVQGWGENDRGVSFTFGADVVSKFLNRHDLDLICRAHQVVEDGYEFFAKRQLVTLFSAPNYCGEFDNAGGMMSVDETLMCSFQILKPSEKKAKYQYGGLNSGRPVTPPRTANPPKKR [PPP1CB] | -0.161 | 0.423 | 0.737 | 52.3 | 52.1 | 0.0171
7 | MMPMFLTVYLSNNEQHFTEVPVTPETICRDVVDLCKEPGESDCHLAEVWCGSERPVADNERMFDVLQRFGSQRNEVRFFLRHERPPGRDIVSGPRSQDPSLKRNGVKVPGEYRRKENGVNSPRMDLTLAELQEMASRQQQQIEAQQQLLATKEQRLKFLKQQDQRQQQQVAEQEKLKRLKEIAENQEAKLKKVRALKGHVEQKRLSNGKLVEEIEQMNNLFQQKQRELVLAVSKVEELTRQLEMLKNGRIDSHHDNQSAVAELDRLYKELQLRNKLNQEQNAKLQQQRECLNKRNSEVAVMDKRVNELRDRLWKKKAALQQKENLPVSSDGNLPQQAASAPSRVAAVGPYIQSSTMPRMPSRPELLVKPALPDGSLVIQASEGPMKIQTLPNMRSGAASQTKGSKIHPVGPDWSPSNADLFPSQGSASVPQSTGNALDQVDDGEVPLREKEKKVRPFSMFDAVDQSNAPPSFGTLRKNQSSEDILRDAQVANKNVAKVPPPVPTKPKQINLPYFGQTNQPPSDIKPDGSSQQLSTVVPSMGTKPKPAGQQPRVLLSPSIPSVGQDQTLSPGSKQESPPAAAVRPFTPQPSKDTLLPPFRKPQTVAASSIYSMYTQQQAPGKNFQQAVQSALTKTHTRGPHFSSVYGKPVIAAAQNQQQHPENIYSNSQGKPGSPEPETEPVSSVQENHENERIPRPLSPTKLLPFLSNPYRNQSDADLEALRKKLSNAPRPLKKRSSITEPEGPNGPNIQKLLYQRTTIAAMETISVPSYPSKSASVTASSESPVEIQNPYLHVEPEKEVVSLVPESLSPEDVGNASTENSDMPAPSPGLDYEPEGVPDNSPNLQNNPEEPNPEAPHVLDVYLEEYPPYPPPPYPSGEPEGPGEDSVSMRPPEITGQVSLPPGKRTNLRKTGSERIAHGMRVKFNPLALLLDSSLEGEFDLVQRIIYEVDDPSLPNDEGITALHNAVCAGHTEIVKFLVQFGVNVNAADSDGWTPLHCAASCNNVQVCKFLVESGAAVFAMTYSDMQTAADKCEEMEEGYTQCSQFLYGVQEKMGIMNKGVIYALWDYEPQNDDELPMKEGDCMTIIHREDEDEIEWWWARLNDKEGYVPRNLLGLYPRIKPRQRSLA [TP53BP2] | 0.0669 | 0.713 | 1.28 | 48.9 | 48.5 | -0.063
8 | MGQGPRSPHKVGRRFPAGGKRGRGAKGSGRPLPGRKRQPWPPPDGRSEPAPDSHPHLSPEALGYFRRALSALKEAPETGEERDLMVHNIMKEVETQALALSTNRTGSEMLQELLGFSPLKPLCRVWAALRSNLRTVACHRCGVHVLQSALLQLPRLLGSAAEEEEEEEEDGKDGPTETLEELVLGLAAEVCDDFLVYCGDTHGSFVVRTLLQVLGGTILESERARPRGSQSSEAQKTPAQECKPADFEVPETFLNRLQDLSSSFLKDIAVFITDKISSFCLQVALQVLHRKLPQFCAHLCNAVIGYLSTRGSSVDGSPLLLFLRDQTSSRLLEQVLLVLEPPRLQSLFEEHLQGQLQTLAAHPIANFPLQRLLDAVTTPELLSPVFEELSPVLEAVLAQGHPGVVIALVGACRRVGAYQAKVLQLLLEAFHCAEPSSRQVACVPLFATLMAYEVYYGLTEEEGAVPAEHQVAMAAARALGDVTVLGSLLLQHLLHFSTPGLVLRSLGALTGPQLLSLAQSPAGSHVLDAILTSPSVTRKLRRRVLQNLKGQYVALACSRHGSRVLDAIWSGAALRARKEIAAELGEQNQELIRDPFGHHVARNVALTTFLKRREAWEQQQGAVAKRRRALNSILED [NOP9] | -0.0623 | 0.433 | 0.684 | 49.1 | 49.1 | 0.2
9 | ITPR3 | -0.508 | 0.858 | 2.41 | 48.6 | 50.1 | 0.0432
10 | MVKQIESKTAFQEALDAAGDKLVVVDFSATWCGPCKMIKPFFHSLSEKYSNVIFLEVDVDDCQDVASECEVKCMPTFQFFKKGQKVGEFSGANKEKLEATINELV [TXN] | 0.255 | -0.802 | -2.72 | 57.3 | 58.1 | -0.04
11 | MAASEAAVVSSPSLKTDTSPVLETAGTVAAMAATPSARAAAAVVAAAARTGSEARVSKAALATKLLSLSGVFAVHKPKGPTSAELLNRLKEKLLAEAGMPSPEWTKRKKQTLKIGHGGTLDSAARGVLVVGIGSGTKMLTSMLSGSKRYTAIGELGKATDTLDSTGRVTEEKPYDKITQEDIEGILQKFTGNIMQVPPLYSALKKDGQRLSTLMKRGEVVEAKPARPVTVYSISLQKFQPPFFTLDVECGGGFYIRSLVSDIGKELSSCANVLELTRTKQGPFTLEEHALPEDKWTIDDIAQSLEHCSSLFPAELALKKSKPESNEQVLSCEYITLNEPKREDDVIKTC [TRUB1] | 0.549 | 1.48 | 1.46 | 50.2 | 50.2 | -0.0378
12 | MKLSRQFTVFGSAIFCVVIFSLYLMLDRGHLDYPRNPRREGSFPQGQLSMLQEKIDHLERLLAENNEIISNIRDSVINLSESVEDGPKSSQSNFSQGAGSHLLPSQLSLSVDTADCLFASQSGSHNSDVQMLDVYSLISFDNPDGGVWKQGFDITYESNEWDTEPLQVFVVPHSHNDPGWLKTFNDYFRDKTQYIFNNMVLKLKEDSRRKFIWSEISYLSKWWDIIDIQKKDAVKSLIENGQLEIVTGGWVMPDEATPHYFALIDQLIEGHQWLENNIGVKPRSGWAIDPFGHSPTMAYLLNRAGLSHMLIQRVHYAVKKHFALHKTLEFFWRQNWDLGSVTDILCHMMPFYSYDIPHTCGPDPKICCQFDFKRLPGGRFGCPWGVPPETIHPGNVQSRARMLLDQYRKKSKLFRTKVLLAPLGDDFRYCEYTEWDLQFKNYQQLFDYMNSQSKFKVKIQFGTLSDFFDALDKADETQRDKGQSMFPVLSGDFFTYADRDDHYWSGYFTSRPFYKRMDRIMESHLRAAEILYYFALRQAHKYKINKFLSSSLYTALTEARRNLGLFQHHDAITGTAKDWVVVDYGTRLFHSLMVLEKIIGNSAFLLILKDKLTYDSYSPDTFLEMDLKQKSQDSLPQKNIIRLSAEPRYLVVYNPLEQDRISLVSVYVSSPTVQVFSASGKPVEVQVSAVWDTANTISETAYEISFRAHIPPLGLKVYKILESASSNSHLADYVLYKNKVEDSGIFTIKNMINTEEGITLENSFVLLRFDQTGLMKQMMTKEDGKHHEVNVQFSWYGTTIKRDKSGAYLFLPDGNAKPYVYTTPPFVRVTHGRIYSEVTCFFDHVTHRVRLYHIQGIEGQSVEVSNIVDIRKVYNREIAMKISSDIKSQNRFYTDLNGYQIQPRMTLSKLPLQANVYPMTTMAYIQDAKHRLTLLSAQSLGVSSLNSGQIEVIMDRRLMQDDNRGLEQGIQDNKITANLFRILLEKRSAVNTEEEKKSVSYPSLLSHITSSLMNHPVIPMANKFSSPTLELQGEFSPLQSSLPCDIHLVNLRTIQSKVGNGHSNEAALILHRKGFDCRFSSKGTGLFCSTTQGKILVQKLLNKFIVESLTPSSLSLMHSPPGTQNISEINLSPMEISTFRIQLR [MAN2A1] | -0.0419 | 2.95 | 3.08 | 54.8 | 54.8 | -0.156
